Data as given in the supplement of paper PMC10065799, “High-throughput profiling of sequence recognition by tyrosine kinases and SH2 domains using bacterial peptide display” (eLife, 2023).

Each sequence was assayed against Jak2 (UniProt O60674) (assay: phosphorylation enrichment, bacterial display (enrichment ratio); higher = better substrate or ligand; peptides without Tyr show the background).
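Further: 11-residue human phosphosite peptides and single-mutation variants displayed on the E. coli surface, counted by deep sequencing, each peptide's frequency after selection divided by its frequency in the unselected input library; frequency after pTyr selection over input frequency; kinase dosed for 20-30% of maximal phosphorylation in three min.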

Jak2, sequence (O60674 whole entry, looked up): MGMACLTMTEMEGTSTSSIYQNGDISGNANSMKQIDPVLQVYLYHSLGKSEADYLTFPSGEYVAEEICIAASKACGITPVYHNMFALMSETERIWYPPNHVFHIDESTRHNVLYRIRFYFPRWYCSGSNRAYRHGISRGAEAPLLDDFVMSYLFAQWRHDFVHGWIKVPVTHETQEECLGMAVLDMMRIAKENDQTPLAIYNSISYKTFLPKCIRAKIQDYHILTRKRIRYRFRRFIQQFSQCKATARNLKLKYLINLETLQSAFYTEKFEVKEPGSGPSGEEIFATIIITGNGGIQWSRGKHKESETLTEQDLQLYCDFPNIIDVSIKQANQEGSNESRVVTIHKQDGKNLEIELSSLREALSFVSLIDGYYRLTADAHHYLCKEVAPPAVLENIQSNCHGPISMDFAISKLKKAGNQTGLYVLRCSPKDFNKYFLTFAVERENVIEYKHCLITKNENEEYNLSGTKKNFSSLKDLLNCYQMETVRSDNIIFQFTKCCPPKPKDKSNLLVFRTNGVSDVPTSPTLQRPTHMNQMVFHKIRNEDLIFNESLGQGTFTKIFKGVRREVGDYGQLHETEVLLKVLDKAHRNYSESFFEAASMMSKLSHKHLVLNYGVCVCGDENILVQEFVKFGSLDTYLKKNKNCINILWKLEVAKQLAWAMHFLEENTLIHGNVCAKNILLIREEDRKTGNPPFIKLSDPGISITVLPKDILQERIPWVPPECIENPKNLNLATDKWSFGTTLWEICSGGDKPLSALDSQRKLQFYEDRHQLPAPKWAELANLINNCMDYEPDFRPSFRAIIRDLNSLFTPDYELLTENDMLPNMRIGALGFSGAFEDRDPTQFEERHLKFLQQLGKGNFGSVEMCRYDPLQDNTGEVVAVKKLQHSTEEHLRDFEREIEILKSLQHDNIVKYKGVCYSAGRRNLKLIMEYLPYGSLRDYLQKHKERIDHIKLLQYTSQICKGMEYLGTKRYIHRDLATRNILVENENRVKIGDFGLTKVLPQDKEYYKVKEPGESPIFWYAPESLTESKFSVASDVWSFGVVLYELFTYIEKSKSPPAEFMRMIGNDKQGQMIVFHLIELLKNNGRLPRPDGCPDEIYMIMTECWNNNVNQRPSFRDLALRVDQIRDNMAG

Sequence | phosphorylation enrichment
MEIHAYRKLLE [LMNA_Y376] | 0.814
IVRSPYEDLED [VHL_Y185_L184P] | 1.35
EVRAQYEEIAQ [KRT76_Y361] | 1.07
CTTIHYNFMCF [TP53_Y234_N239Y_YF] | 0.913
RHPFFYAPELL [ALB_Y174_YF] | 1.97
LIFTNYEAGKD [GSTP1_Y112_YF] | 1.26
QTEAQYRFIFM [PTPN11_Y511_YF] | 1.78
SLALFYRKVYH [RBL1_Y792] | 1.14
TSEASYFKSLN [NGEF_Y288_YF] | 0.626
SVTCTYPPALN [TP53_Y126_S127P] | 1.07
ILNANYMAKRL [GLDC_Y839] | 0.436
VVKLTYNENDN [CAMKK2_Y183_A182T] | 0.726
LIFVSYDDWDY [GRIN2A_Y281_S278F] | 2.22
KQELVYTNKKL [OPTN_Y356] | 0.791
VTPSEYLEIVR [TMEM130_Y412_E407V] | 0.762
ISDNACQYMLT [MYH7_Y162_Y162C] | 1.18
ETVHRYVELLD [AP1S3_Y87_I83T] | 0.752

Sequence | phosphorylation enrichment
RLLRGYDQLAY [HLA-C_Y137_S140L] | 0.649
ARVDTYCRHNY [HLA-DRB1_Y107_A103R] | 0.798
HHIDFYKKTTN [FGFR1_Y654_YF] | 0.53
HILFRYPKEFQ [IDS_Y234_P231L] | 1.59
KLSCSYSHLSA [C4BPA_Y470_W473L] | 1.06
HAVYVCDICHV [TWNK_Y508_Y508C] | 1.01
ISIFRYAKGQP [MPZ_Y82_H81R] | 0.969
RHPYFFAPELL [ALB_Y174_Y174F] | 1.39
GCRSKSVGLWG [KCNQ1_Y184_Y184S] | 0.539
EDKFMYLEFPQ [PTEN_Y240_F241L] | 1.38
PLQKTYNYNML [SLC4A1_Y553_V557M] | 0.649
LEEFQYIGELQ [MSH2_Y856_S860L] | 2.39
HVKHNYECLVF [XRCC5_Y416_I412V_YF] | 1.71
RFQKLYLDRNL [IGFALS_Y248_L244F] | 0.538
MDDPRYGVCPL [ZNF100_Y6_M8V] | 1.46
ETAENYLGYTA [HSPA9_Y181_H184Y] | 0.839

The sequences below were run on Fer (mouse) in the same assay as above.

Sequence | phosphorylation enrichment
MEIHAYRKLLE [LMNA_Y376] | 0.527
IVRSPYEDLED [VHL_Y185_L184P] | 0.562
EVRAQYEEIAQ [KRT76_Y361] | 0.977
CTTIHYNFMCF [TP53_Y234_N239Y_YF] | 0.671
RHPFFYAPELL [ALB_Y174_YF] | 1.06
LIFTNYEAGKD [GSTP1_Y112_YF] | 0.453
QTEAQYRFIFM [PTPN11_Y511_YF] | 0.785
SLALFYRKVYH [RBL1_Y792] | 0.566
TSEASYFKSLN [NGEF_Y288_YF] | 0.535
SVTCTYPPALN [TP53_Y126_S127P] | 0.473
ILNANYMAKRL [GLDC_Y839] | 0.458
VVKLTYNENDN [CAMKK2_Y183_A182T] | 0.577
LIFVSYDDWDY [GRIN2A_Y281_S278F] | 4.89
KQELVYTNKKL [OPTN_Y356] | 0.571
VTPSEYLEIVR [TMEM130_Y412_E407V] | 0.45
ISDNACQYMLT [MYH7_Y162_Y162C] | 0.587
ETVHRYVELLD [AP1S3_Y87_I83T] | 0.435

Sequence | phosphorylation enrichment
RLLRGYDQLAY [HLA-C_Y137_S140L] | 0.758
ARVDTYCRHNY [HLA-DRB1_Y107_A103R] | 0.812
HHIDFYKKTTN [FGFR1_Y654_YF] | 0.604
HILFRYPKEFQ [IDS_Y234_P231L] | 0.779
KLSCSYSHLSA [C4BPA_Y470_W473L] | 0.55
HAVYVCDICHV [TWNK_Y508_Y508C] | 0.775
ISIFRYAKGQP [MPZ_Y82_H81R] | 0.414
RHPYFFAPELL [ALB_Y174_Y174F] | 0.541
GCRSKSVGLWG [KCNQ1_Y184_Y184S] | 0.365
EDKFMYLEFPQ [PTEN_Y240_F241L] | 0.673
PLQKTYNYNML [SLC4A1_Y553_V557M] | 0.395
LEEFQYIGELQ [MSH2_Y856_S860L] | 0.656
HVKHNYECLVF [XRCC5_Y416_I412V_YF] | 1.09
RFQKLYLDRNL [IGFALS_Y248_L244F] | 0.224
MDDPRYGVCPL [ZNF100_Y6_M8V] | 0.56
ETAENYLGYTA [HSPA9_Y181_H184Y] | 0.498

These sequences were tested against MERTK (UniProt Q12866) in the same assay as above.
MERTK, sequence (Q12866 whole entry, looked up): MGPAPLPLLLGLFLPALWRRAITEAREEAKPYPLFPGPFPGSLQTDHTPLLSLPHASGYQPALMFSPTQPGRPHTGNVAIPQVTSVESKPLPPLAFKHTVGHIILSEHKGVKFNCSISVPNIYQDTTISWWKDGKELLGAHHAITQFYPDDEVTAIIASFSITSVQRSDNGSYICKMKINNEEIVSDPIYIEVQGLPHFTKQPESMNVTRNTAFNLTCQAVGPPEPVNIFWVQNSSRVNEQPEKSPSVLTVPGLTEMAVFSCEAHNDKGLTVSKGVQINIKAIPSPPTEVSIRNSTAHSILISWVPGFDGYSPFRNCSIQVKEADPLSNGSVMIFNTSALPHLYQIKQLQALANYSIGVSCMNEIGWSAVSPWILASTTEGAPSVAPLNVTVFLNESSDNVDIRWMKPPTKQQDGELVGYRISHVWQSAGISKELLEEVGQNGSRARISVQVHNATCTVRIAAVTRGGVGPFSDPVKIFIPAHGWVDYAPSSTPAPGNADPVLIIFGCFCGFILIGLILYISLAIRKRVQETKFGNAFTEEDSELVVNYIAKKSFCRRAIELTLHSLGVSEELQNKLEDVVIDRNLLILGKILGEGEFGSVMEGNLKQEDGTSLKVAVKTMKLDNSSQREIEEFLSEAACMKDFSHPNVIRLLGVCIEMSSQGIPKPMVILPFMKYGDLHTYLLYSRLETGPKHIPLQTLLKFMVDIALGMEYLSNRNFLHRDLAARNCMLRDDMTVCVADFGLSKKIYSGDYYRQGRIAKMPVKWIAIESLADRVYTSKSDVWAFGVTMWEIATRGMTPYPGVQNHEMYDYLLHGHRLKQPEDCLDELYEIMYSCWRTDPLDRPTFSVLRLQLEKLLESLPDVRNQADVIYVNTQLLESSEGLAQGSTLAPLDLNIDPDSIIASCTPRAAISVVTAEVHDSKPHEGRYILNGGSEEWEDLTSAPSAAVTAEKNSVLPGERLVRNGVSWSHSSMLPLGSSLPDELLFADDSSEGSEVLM

Sequence | phosphorylation enrichment
MEIHAYRKLLE [LMNA_Y376] | 0.383
IVRSPYEDLED [VHL_Y185_L184P] | 0.533
EVRAQYEEIAQ [KRT76_Y361] | 0.404
CTTIHYNFMCF [TP53_Y234_N239Y_YF] | 0.409
RHPFFYAPELL [ALB_Y174_YF] | 0.839
LIFTNYEAGKD [GSTP1_Y112_YF] | 0.675
QTEAQYRFIFM [PTPN11_Y511_YF] | 0.58
SLALFYRKVYH [RBL1_Y792] | 0.408
TSEASYFKSLN [NGEF_Y288_YF] | 0.481
SVTCTYPPALN [TP53_Y126_S127P] | 0.477
ILNANYMAKRL [GLDC_Y839] | 0.446
VVKLTYNENDN [CAMKK2_Y183_A182T] | 0.467
LIFVSYDDWDY [GRIN2A_Y281_S278F] | 0.618
KQELVYTNKKL [OPTN_Y356] | 0.594
VTPSEYLEIVR [TMEM130_Y412_E407V] | 0.387
ISDNACQYMLT [MYH7_Y162_Y162C] | 0.75
ETVHRYVELLD [AP1S3_Y87_I83T] | 0.415

Sequence | phosphorylation enrichment
RLLRGYDQLAY [HLA-C_Y137_S140L] | 0.581
ARVDTYCRHNY [HLA-DRB1_Y107_A103R] | 0.538
HHIDFYKKTTN [FGFR1_Y654_YF] | 0.408
HILFRYPKEFQ [IDS_Y234_P231L] | 0.573
KLSCSYSHLSA [C4BPA_Y470_W473L] | 0.58
HAVYVCDICHV [TWNK_Y508_Y508C] | 0.524
ISIFRYAKGQP [MPZ_Y82_H81R] | 0.49
RHPYFFAPELL [ALB_Y174_Y174F] | 0.557
GCRSKSVGLWG [KCNQ1_Y184_Y184S] | 0.389
EDKFMYLEFPQ [PTEN_Y240_F241L] | 0.664
PLQKTYNYNML [SLC4A1_Y553_V557M] | 0.52
LEEFQYIGELQ [MSH2_Y856_S860L] | 0.716
HVKHNYECLVF [XRCC5_Y416_I412V_YF] | 0.948
RFQKLYLDRNL [IGFALS_Y248_L244F] | 0.342
MDDPRYGVCPL [ZNF100_Y6_M8V] | 0.579
ETAENYLGYTA [HSPA9_Y181_H184Y] | 0.516

What follows are sequences tested against Hck (UniProt P08631) in the same assay as above.
Hck, sequence (P08631 whole entry, looked up): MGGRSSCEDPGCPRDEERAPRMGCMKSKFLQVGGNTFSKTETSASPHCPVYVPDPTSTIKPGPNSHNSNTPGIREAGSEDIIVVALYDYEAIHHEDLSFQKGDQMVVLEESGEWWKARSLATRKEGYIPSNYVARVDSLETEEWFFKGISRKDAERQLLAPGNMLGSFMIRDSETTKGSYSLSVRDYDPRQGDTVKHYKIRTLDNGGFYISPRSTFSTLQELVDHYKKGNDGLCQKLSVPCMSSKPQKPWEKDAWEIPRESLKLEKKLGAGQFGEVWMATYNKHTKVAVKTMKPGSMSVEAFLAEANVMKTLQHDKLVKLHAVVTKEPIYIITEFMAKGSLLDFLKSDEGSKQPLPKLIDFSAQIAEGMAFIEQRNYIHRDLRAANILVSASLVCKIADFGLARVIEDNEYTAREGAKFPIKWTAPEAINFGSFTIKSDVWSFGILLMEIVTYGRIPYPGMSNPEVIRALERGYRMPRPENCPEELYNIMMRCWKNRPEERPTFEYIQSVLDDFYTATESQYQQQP

Sequence | phosphorylation enrichment
MEIHAYRKLLE [LMNA_Y376] | 0.414
IVRSPYEDLED [VHL_Y185_L184P] | 0.528
EVRAQYEEIAQ [KRT76_Y361] | 0.614
CTTIHYNFMCF [TP53_Y234_N239Y_YF] | 0.451
RHPFFYAPELL [ALB_Y174_YF] | 0.733
LIFTNYEAGKD [GSTP1_Y112_YF] | 0.582
QTEAQYRFIFM [PTPN11_Y511_YF] | 0.688
SLALFYRKVYH [RBL1_Y792] | 0.518
TSEASYFKSLN [NGEF_Y288_YF] | 0.359
SVTCTYPPALN [TP53_Y126_S127P] | 0.557
ILNANYMAKRL [GLDC_Y839] | 0.366
VVKLTYNENDN [CAMKK2_Y183_A182T] | 0.5
LIFVSYDDWDY [GRIN2A_Y281_S278F] | 0.774
KQELVYTNKKL [OPTN_Y356] | 0.734
VTPSEYLEIVR [TMEM130_Y412_E407V] | 0.751
ISDNACQYMLT [MYH7_Y162_Y162C] | 0.518
ETVHRYVELLD [AP1S3_Y87_I83T] | 0.52

Sequence | phosphorylation enrichment
RLLRGYDQLAY [HLA-C_Y137_S140L] | 0.637
ARVDTYCRHNY [HLA-DRB1_Y107_A103R] | 0.502
HHIDFYKKTTN [FGFR1_Y654_YF] | 0.378
HILFRYPKEFQ [IDS_Y234_P231L] | 0.603
KLSCSYSHLSA [C4BPA_Y470_W473L] | 0.513
HAVYVCDICHV [TWNK_Y508_Y508C] | 0.826
ISIFRYAKGQP [MPZ_Y82_H81R] | 0.402
RHPYFFAPELL [ALB_Y174_Y174F] | 0.598
GCRSKSVGLWG [KCNQ1_Y184_Y184S] | 0.423
EDKFMYLEFPQ [PTEN_Y240_F241L] | 1.01
PLQKTYNYNML [SLC4A1_Y553_V557M] | 0.578
LEEFQYIGELQ [MSH2_Y856_S860L] | 0.908
HVKHNYECLVF [XRCC5_Y416_I412V_YF] | 0.581
RFQKLYLDRNL [IGFALS_Y248_L244F] | 0.569
MDDPRYGVCPL [ZNF100_Y6_M8V] | 0.715
ETAENYLGYTA [HSPA9_Y181_H184Y] | 0.751
